From paper PMC9633773, “Discovering cell-active BCL6 inhibitors: effectively combining biochemical HTS with multiple biophysical techniques, X-ray crystallography and cell-based assays” (Scientific Reports, 2022)
Ends that are not written are not given here.

Key:
Details in all cases: both partners purified
[1] = molecular target: T1, BCL6 BTB domain (BCL6 5-129, tag removed by HRV-3C protease) (human, UniProt P41182 5-129); experiment: fluorescence polarisation; direct binding of the BCOR-AF633 probe to BCL6 BTB, FP KD (Figure S1A)
[2] = molecular target: Trx-6His-HRV3C-BCL6 (Thioredoxin-6His-tagged BCL6 BTB, uncleaved) (human, UniProt P41182 5-129); experiment: as above
[3] = molecular target: T2, BCL6 BTB domain (BCL6 5-129, tag removed by HRV-3C protease) (human, UniProt P41182 5-129); experiment: fluorescence polarisation; competition: 10 nM BCOR-AF633, 3 µM BCL6 BTB, unlabelled peptide varied; 20 mM Hepes/NaOH pH 8.0, 150 mM NaCl, 0.5 mM TCEP, 0.05% Tween 20, 1-2% DMSO; 2 h at room temperature
[4] = molecular target: T2, BCL6 BTB domain (BCL6 5-129, tag …); experiment: thermal shift assay; 10 µM BCL6 BTB, Sypro Orange, sodium acetate pH 6, 100 mM NaCl, 0.5 mM TCEP; 200 µM BCOR control peptide
[5] = molecular target: T1, BCL6 BTB domain (BCL6 5-129, tag …); experiment: fluorescence polarisation; competition: 10 nM BCOR-AF633, 3 µM BCL6 BTB, unlabelled peptide varied; 20 mM Hepes/NaOH pH 8.0, 150 mM NaCl, 0.5 mM TCEP, 0.05% Tween 20, 1-2% DMSO; 2 h at room temperature; remark: listed apart in the source

B1: Alexa Fluor 633-conjugated BCOR peptide (RSEIISTAPSSWVVPGP-Cys(AF633)-amide) (peptide)
peptide: RSEIISTAPSSWVVPGPC(Alexa Fluor 633 C5 maleimide)-NH2
notes: added C-terminal cysteine that carries the dye; also called BCOR-AF633; BCOR-A633; source: synthetic peptide, bought: Cambridge Research Biochemicals
Kd [1]: 1.7 ± 0.3 µM | Kd [2]: 1.74 µM

B2: unlabelled BCOR peptide (17 residue BCOR peptide) (peptide)
chain: RSEIISTAPSSWVVPGP
modifications: Terminal capping of the unlabelled peptide is not printed. Limits come from the UniProt BCL6-interaction region 498-514, which is 17 residues and matches the printed probe RSEIISTAPSSWVVPGP without …
IC50 [3]: 13 ± 1 µM | ΔTm with 200 µM peptide [4]: 6.5 °C

B3: SMRT peptide (EGLVATVKEAGRSIHEIPR) (peptide)
peptide: EGLVATVKEAGRSIHEIPR
notes: also called SMRT control peptide; unlabelled SMRT peptide; source: synthetic peptide, bought: Pepceuticals Ltd
IC50 [5]: 16 ± 6 µM
